Test results reported in patent publication US20180311331A1, “PROGNOSIS AND TREATMENT OF SQUAMOUS CELL CARCINOMAS” (THE REGENTS OF THE UNIVERSITY OF COLORADO, a body corporate, priority 2015, published 2018).

Tests used:
[1] = test system: MDSCs; details: without any effect on B and T cells, NK cells, or macrophages; cited from earlier work
[2] = test system: MOE/E6E7 cells; assay: Tumor growth and survival after injection of MOE/E6E7 cells expressing Cxcl14 into Rag1-/- B6 mice; type: in vivo, mouse
Description: (§1) Two MOE/E6E7 cell clones expressing Cxcl14 (clones 8 and 16) and one vector containing MOE/E6E7 cell clone were injected into the rear right flank of wildtype (A & B) and Rag1−/− (C & D) B6 mice (n=10, each group of wildtype; n=7, each group of Rag1−/). (A & C) Tumor growth was determined every week by the formula: volume=(width) 2×length. Survival rates were analyzed using a Kaplan-Meier estimator. (B & D) Time-to-event was determined for each group (vector only, Cxcl14-clone 8, Cxcl14-clone 16) with the event being tumor burden larger than 2,500 mm3. Deaths not associated with tumor were censored. P-values were determined by the Log-rank test.
(§2) CXCL14 is an evolutionary-conserved chemokine showing 98% homology between human CXCL14 and murine Cxcl14. […] To characterize immune cell infiltration regulated by Cxcl14 expression, the inventors analyzed various immune cells in tumor tissue, tumor draining lymph node (TDLN), and in spleen harvested from the wildtype B6 mice at 21 days after injection with a control or with Cxcl14 expressing MOE/E6E7 cells. […]
(§3) To determine whether CXCL14 affects tumor growth in vivo, the inventors utilized an HNSCC mouse model with MOE/E6E7 cells that form tumors in immunocompetent syngeneic mice. […] Next, the inventors determined whether CXCL14 directly induces chemotaxis of CD8^+ T and NK cells using the Transwell system and splenocytes isolated from B6 mice.

[3] = target: T1, IL-8 (Homo sapiens, UniProt P10145); details: another study; cited from earlier work
T1 sequence (P10145 21-99): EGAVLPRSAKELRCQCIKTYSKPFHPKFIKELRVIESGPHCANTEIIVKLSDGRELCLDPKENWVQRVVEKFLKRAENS

[4] = test system: myeloid-derived suppressor cells (MDSC); assay: MDSC abundance by flow cytometry in tumor and spleen of Rag1-/- mice; type: in vivo, mouse; details: mice injected with MOE/E6E7 cells re-expressing Cxcl14 vs empty vector, 23 days post injection
Description: MOE/E6E7 cell clones expressing Cxcl14 (8 and 16) and one vector containing MOE/E6E7 cell clone were injected into Rag1−/− mice (n=4, each group). Tumor (A) and spleen (B) were harvested at 23 days post injection, homogenized, and analyzed by flow cytometry. Relative abundance of MDSC cells (A & B) was determined using anti-MHCII, anti-Gr1, and anti-CD11b+ antibodies.
The chemokine receptors CXCR1 and CXCR2 are of primary importance for the migration of granulocytes to sites of inflammation. A recent study has shown that CXCR2 is also required for MDSC infiltration into tumors for cancer development. Additionally, blocking CXCR2-mediated MDSC infiltration enhances efficacy of anti-PD1 therapy. […] Thus, it is likely that CXCR2 ligands produced by HNSCC cells recruit MDSCs into the TME, and that CXCL14 expression interferes with IL-8 mediated MDSC infiltration. Thus, it will be verified that CXCL14 expression in HPV+ HNSCC cells reverses the immunosuppressive microenvironment by inhibiting Cxcr2-mediated MDSC expansion and infiltration. These experiments will determine novel mechanisms by which downregulation of CXCL14 triggers immune suppression in the TME.

[5] = test system: MOE/E6E7 cells; assay: Tumor growth and survival after injection of MOE/E6E7 cells expressing Cxcl14 into wildtype B6 mice; type: in vivo, mouse; details: wildtype B6 mice injected with MOE/E6E7 cells expressing Cxcl14
Description: as §1, §2, §3

[6] = test system: CD8+ T, NK and Treg cells; assay: Immune cell populations by flow cytometry in wildtype B6 mice bearing Cxcl14-expressing MOE/E6E7 cells; type: in vivo, mouse
Description: MOE/E6E7 cells with Cxcl14 (clones #8 and #16) or vector were injected into the right flank of B6 mice (n=3, each group). Tumor (A) and lymph nodes (B) tissues were harvested at 21 days post injection. Percentage of immune cell populations was determined by flow cytometry.
MOE/E6E7 cell clones expressing Cxcl14 (8 and 16) and one vector containing MOE/E6E7 cell clone were injected into the rear right flank of B6 mice (n=3, each group). Spleen was harvested at 21 days post injection and analyzed by flow cytometry. Relative abundance of Treg cells was determined using anti-CD4 and CD25 antibodies.
as §2, with “murine Cxcl14. To determine whether CXCL14 affects tumor growth in vivo, the inventors studied mouse oropharyngeal epithelial cells (MOE/E6E7) that form tumors in immunocompetent syngeneic C57BL/6 (B6) mice. […] To test tumor suppressor functions of CXCL14, the inventors established MOE/E6E7 cell lines that re-expressed their physiological levels of” for “murine”

[7] = test system: splenocytes isolated from B6 mice; assay: In vitro migration assay using the Transwell system; type: cell-based, mouse
Description: MOE cells with Cxcl14 or vector were cultured on the bottom chamber of a Transwell. Splenocytes were added to the upper chamber. After 12 hr incubation, migrated splenocytes to the bottom chamber were collected and analyzed by flow cytometry.
as §2, with “murine Cxcl14. To determine whether CXCL14 affects tumor growth in vivo, the inventors studied mouse oropharyngeal epithelial cells (MOE/E6E7) that form tumors in immunocompetent syngeneic C57BL/6 (B6) mice. […] To test tumor suppressor functions of CXCL14, the inventors established MOE/E6E7 cell lines that re-expressed their physiological levels of” for “murine”
as §3

Nc1ccn([C@@H]2O[C@H](CO)[C@@H](O)C2(F)F)c(=O)n1 [gemcitabine]
MDSC elimination in tumor-bearing mice [1]: selectively eliminates MDSCs through apoptosis

B1: Cxcl14: chemokine, approximately 9.5 kD secreted protein; tested by re-expression in MOE/E6E7 tumor cells (clones 8 and 16) (protein, UniProt Q9WUQ5 23-99, looked up)
C-X-C motif chemokine 14: SKCKCSRKGPKIRYSDVKKLEMKPKYPHCEEKMVIVTTKSMSRYRGQEHCLHPKLQSTKRFIKWYNAWNEKRRVYEE
Time to succumb to tumor burden ([2]; Rag1-/- B6 mice injected with MOE/E6E7 cells re-expressing Cxcl14): ≤ 32 days post injection | Tumor growth ([2]; Rag1-/- mice injected with Cxcl14 expressing MOE/E6E7 cells): delayed tumor growth | Binding to IL-8 [3]: directly binds to IL-8 | MDSCs in tumors and spleens [4]: significantly decreased | Tumor clearance [5]: a majority of B6 mice injected with MOE/E6E7 cells expressing Cxcl14 cleared tumors | Treg cells in spleens ([6]; B6 mice with tumors re-expressing Cxcl14, 21 days post injection): significantly decreased | Percentages of CD8+ T and NK cells in tumor tissues and TDLNs ([6]; wildtype B6 mice, 21 days after injection, vs vector containing cells): highly increased | Migration of CD8+ T and NK cells to Cxcl14 expressing HNSCC cells ([7]; 12 hr incubation, compared to vector containing HNSCC cells): 3-4 fold | Migration of macrophages and CD4+ T cells ([7]; CXCL14 expressing MOE/E6E7 cells, splenocytes from B6 mice): little effect
